{
  "source": "patent US10888547B2",
  "about": "“Amorphous and a crystalline form of genz 112638 hemitartrate as inhibitor of glucosylceramide synthase” (Genzyme Corporation, priority 2009, dated 2021)",
  "key": {"Aqueous solubility": {"assay": "Aqueous solubility", "type": "physicochemical", "conditions": "in water"}, "[1]": {"assay": "Hygroscopicity of salts and free base", "type": "physicochemical"}, "cytochrome P450 enzymes": {"tested_on": "cytochrome P450 enzymes", "assay": "Hepatic metabolism by cytochrome P450 enzymes", "type": "in vitro ADME, human", "conditions": "liver", "text": "Cytochrome P450s (“CYPs”) are the principal hepatic xenobiotic metabolizing enzymes. There are eleven xenobiotic-metabolizing cytochrome P450s expressed in a typical human liver (i.e., CYP1A2, CYP2A6, CYP2B6, CYP2C8/9/18/19, CYP2D6, CYP2E1 and CYP3A4/5). […] The level of activity of P450 enzymes differs according to the individual. For example, individuals can be classified as poor, intermediate and extensive/ultra rapid P450 metabolizers. Because lower levels of P450 activity in an individual can give rise to drug/drug interactions (“DDI”), another embodiment of the invention is to determine whether the subject is a poor, intermediate and extensive/ultra rapid P450 metabolizer. […] The dose can raised incrementally and the subject retested once, twice, three, four or as many times as necessary to achieve an adjusted effective dose."}, "[2]": {"tested_on": "Gaucher mice (D409V/null)", "assay": "Glucocerebrosidase dosing regimen for debulking GL1 in Gaucher mice", "type": "in vivo, mouse", "conditions": "for reduction of GL1 levels in the liver: 7 days after last infusion", "experimental": "To investigate the relative merits of combination and monotherapy with either enzyme or substrate reduction therapy, the enzyme regimen that maximally depleted GL1 levels in the visceral organs of Gaucher mice was first determined. Three month-old Gaucher mice (D409V/null) were intravenously administered 2, 4 or 8 doses of 10 mg/kg recombinant human glucocerebrosidase. The mice that were treated with 2 or 4 doses of the enzyme received drug infusions every 3 days while those that were treated with 8 doses received the enzyme every 2 days. The use of a shorter time interval between infusions in animals that received 8 treatments was designed to minimize the potential impact of any immune response to the administered human enzyme. The animals were killed 7 days following the last enzyme infusion and the amount of GL1 remaining in their livers, spleens, and lungs were measured."}, "[3]": {"tested_on": "Gaucher mice (D409V/null)", "assay": "Separate and sequential enzyme and substrate reduction therapy in Gaucher mice", "type": "in vivo, mouse", "text": "Procedures involving animals were reviewed and approved by the Institutional Animal Care and Use Committee (IACUC) at Genzyme Corporation following the guidelines issued by the Association for Assessment and Accreditation of Laboratory Animal Care (AAALAC). […] The study had 6 groups of mice with group A being sacrificed after 2 weeks to provide baseline levels of tissue glucosylceramide. Groups B, C, and D all received recombinant human glucocerebrosidase (Genzyme Corp., Cambridge, Mass.) (10 mg/kg) intravenously via a tail-vein (100 μL) every 2 days for a total of 8 injections. Group B was sacrificed at the end of this regimen (at the same time as group A) to provide enzyme-reduced levels of tissue glucosylceramide. Groups D and E were both fed Formula (I) Hemitartrate (Genzyme Corp., Cambridge, Mass.) as a component of the pellet food diet. The drug was formulated at 0.075% (w/w) in standard 5053 mouse chow (TestDiet, Richmond, Ind.) and provided ad libitum. […] Group F received no treatment and was sacrificed along with groups C, D and E 12 weeks after the start of the study. Food consumption and mouse weights were monitored three times per week to determine drug intake and the potential impact of the drug on overall health. Animals were killed by carbon dioxide inhalation and their tissues harvested immediately. Half of each tissue was snap frozen on dry ice and stored at −80° C. until ready for further processing. The other half was processed for histological analysis.\nGlucosylceramide levels were quantified by mass spectrometry as described previously (see K. McEachern, et al., J. Gene. Med. 8 (2006) 719-729; T. Doering, J. Biol. Chem. 274 (1999) 11038-11045, the entire teachings of both are incorporated herein by reference). A known mass of tissue was homogenized in 2:1 (v/v) chloroform:methanol and incubated at 37° C. for 15 min. Samples were centrifuged and the supernatants were extracted with 0.2 volumes of water overnight at 4° C. The samples were centrifuged, the aqueous phase was discarded, and the organic phase was dried down to a film under nitrogen. For electrospray ionization mass spectrometry (ESI/MS) analysis, tissue samples were reconstituted to the equivalent of […] original tissue weight in 1 ml chloroform:methanol (2:1, v/v) and vortexed for 5 min. Aliquots (40 μL) of each sample were delivered to Waters total recovery vials and 50 μL of a 10 μg/mL d3-C16-GL-1 internal standard (Matreya, Inc., Pleasant Gap, Pa.) was added. Samples were dried under nitrogen and reconstituted with 200 μL of 1:4 (v/v) DMSO:methanol. ESI/MS analysis of glucosylceramides of different carbon chain lengths was performed on a Waters alliance HPLC (Separation Module 2695) coupled to a Micromass Quattro Micro system equipped with an electrospray ion source. Lipid extract samples (20 μL) were injected onto a C8 column ([…] i.d; Phenomenex, Torrance, Calif.) at 45° C. and eluted with a gradient of 50 to 100% acetonitrile (2 mM ammonium acetate, 0.1% formic acid) at 0.5 mL/min. The first 0.5 min. was held at 50% organic and then quickly switched to 100% for the final 3.5 min. The source temperature was held constant at 150° C. and nitrogen was used as the desolvation gas at a flow rate of 670 L/h. The capillary voltage was maintained at 3.80 KV with a cone voltage of 23 V, while the dwell time for each ion species was 100 ms. Spectra were acquired by the MRM mode to monitor eight dominant isoforms (C16:0, C18:0, C20:0, C22:1, C22:0, C22:1-OH, C24:1, and C24:0). Quantitation of glucosylceramide was based on the sum of these eight isoforms relative to the internal standard, with a calibration curve ranging from 0.1 to 10 μg/mL.\nFor histological analysis, tissues were fixed in zinc formalin (Electron Microscopy Sciences, Hatfield, Pa.) at room temperature for 24 h, then stored in PBS at 4° C. until ready for further processing. […]"}, "Fabry-Rag mice": {"tested_on": "Fabry-Rag mice", "assay": "Combination ERT/SRT therapy of Fabry-Rag mice", "type": "in vivo, mouse", "conditions": "ERT 1 mg/kg α-galactosidase A i.v., SRT 300 mg/kg daily in diet", "experimental": "For the combination therapy studies, Fabry-Rag mice were put on study at 3 months old (treatment model). Mice in group A received intravenous injections of recombinant human alpha-galactosidase A (Genzyme Corp.) at a dose of 1 mg/kg every 2 months (i.e. 3, 5, 7 and 9 months old). Group B received the same intravenous enzyme doses plus it received Formula (I) Hemitartrate (Genzyme Corp., Cambridge, Mass.) as a component of the pellet food diet. The drug was formulated at 0.15% (w/w) in standard 5053 mouse chow (TestDiet, Richmond, Ind.) and provided ad libitum. […] Group C received enzyme injections every 4 months (i.e. 3 and 7 months old) and was on the same drug-in-food diet as group B. Group D received only the drug-in-food diet (same as groups B and C). Group E was untreated Fabry-Rag mice and group F were wild-type controls.\nQuantitation of GL-3 was by Tandem Mass Spectrometry essentially as for GL-1.\nHot plate Assay was performed as described previously (Ziegler, R J et al. Molec. Ther. 15(3), 492-500 (2007).\nBeginning at three-months of age, the mice were subjected to a schedule of behavioral tests (i.e. hot-plate assay) and biochemical tests (i.e., GL-3 level analysis in tissues/blood/urine), as shown in FIG. 10."}},
  "data": [
    {"molecule": "CCCCCCCC(=O)N[C@H](CN1CCCC1)[C@H](O)c1ccc2c(c1)OCCO2", "note": "[Formula (I) Free Base]", "values": [
      {"measurement": "Aqueous solubility", "setting": "Aqueous solubility", "value": 40, "unit": "µg/mL"},
      {"measurement": "Hygroscopicity (40° C./75% RH)", "setting": "[1]; 40° C./75% RH", "value": "None"},
      {"measurement": "primary cytochrome P450 isoforms responsible for de-toxifying the compound", "setting": "cytochrome P450 enzymes", "value": "CYP2D6 and CYP3A4"}
    ]},
    {"molecule": "CCCCCCCC(=O)N[C@H](CN1CCCC1)[C@H](O)c1ccc2c(c1)OCCO2", "note": "[hydrochloric acid (1:1)]", "values": [
      {"measurement": "hygroscopicity of the solid salt", "setting": "[1]; salt screen, Example 1", "value": "hygroscopic"}
    ]},
    {"molecule": "recombinant glucocerebrosidase: recombinant human glucocerebrosidase (Genzyme Corp.), enzyme therapy given to Gaucher mice (protein, UniProt P04062 40-536, looked up) Lysosomal acid …: ARPCIPKSFGYSSVVCVCNATYCDSFDPPTFPALGTFSRYESTRSGRRMELSMGPIQANHTGTGLLLTLQPEQKFQKVKGFGGAMTDAAALNILALSPPAQNLLLKSYFSEEGIGYNIIRVPMASCDFSIRTYTYADTPDDFQLHNFSLPEEDTKLKIPLIHRALQLAQRPVSLLASPWTSPTWLKTNGAVNGKGSLKGQPGDIYHQTWARYFVKFLDAYAEHKLQFWAVTAENEPSAGLLSGYPFQCLGFTPEHQRDFIARDLGPTLANSTHHNVRLLMLDDQRLLLPHWAKVVLTDPEAAKYVHGIAVHWYLDFLAPAKATLGETHRLFPNTMLFASEACVGSKFWEQSVRLGSWDRGMQYSHSIITNLLYHVVGWTDWNLALNPEGGPNWVRNFVDSPIIVDITKDTFYKQPMFYHLGHFSKFIPEGSQRVGLVASQKNDLDAVALMHPDGSAVVVVLNRSSKDVPLTIKDPAVGFLETISPGYSIHTYLWRRQ", "values": [
      {"measurement": "splenic GL1 levels versus untreated controls", "setting": "[2]; 2 doses of 10 mg/kg i.v.", "value": "did not significantly alter"},
      {"measurement": "reduction of GL1 levels in the liver", "setting": "[2]; 2 doses of 10 mg/kg i.v. every 3 days", "value": 50, "unit": "%"},
      {"measurement": "reduction of splenic GL1 levels", "setting": "[2]; 4 or 8 doses of 10 mg/kg i.v.", "value": "about 50%"},
      {"measurement": "reduction of GL1 levels in the liver", "setting": "[2]; 4 or 8 doses of 10 mg/kg i.v.", "value": "approximately 75%"},
      {"measurement": "lung GL1, reduction to % of untreated control", "setting": "[2]; 8 doses of 10 mg/kg i.v. every 2 days", "value": "approximately 60%"},
      {"measurement": "liver histopathology, CD68-positive Gaucher cells", "setting": "[3]; 2 weeks enzyme, then 10 weeks without further treatment", "value": "re-emergence of Gaucher cells"},
      {"measurement": "liver histopathology, CD68-positive Gaucher cells", "setting": "[3]; enzyme over a period of 2 weeks", "value": "substantial clearance of the lipid"},
      {"measurement": "stored GL1 levels cleared from the liver", "setting": "[3]; group B: 8 doses of 10 mg/kg enzyme over 2 weeks", "value": "Approximately 80%"},
      {"measurement": "reduction of splenic GL1 levels", "setting": "[3]; group B: enzyme alone for 2 weeks", "value": "approximately 60%"},
      {"measurement": "reduction in substrate (GL1) levels in the lung", "setting": "[3]; group B: enzyme for 2 weeks", "value": 30, "unit": "%"},
      {"measurement": "splenic GL1 levels versus untreated control (F)", "setting": "[3]; group C: 2 weeks enzyme, then 10 weeks without further intervention", "value": "not significantly different"},
      {"measurement": "liver GL1 levels versus untreated controls (F)", "setting": "[3]; group C: 2 weeks enzyme, then 10 weeks without further treatment", "value": "not significantly different"},
      {"measurement": "lung GL1 levels versus untreated levels (F)", "setting": "[3]; group C: 2 weeks enzyme, then normal chow for 10 weeks", "value": "not significantly different"}
    ]},
    {"molecule": "ERT: enzyme replacement therapy in Fabry-Rag mice: recombinant human alpha-galactosidase A (Genzyme Corp.), 1 mg/kg intravenous (protein, UniProt P06280 32-429, looked up) Alpha-galactosidase A: LDNGLARTPTMGWLHWERFMCNLDCQEEPDSCISEKLFMEMAELMVSEGWKDAGYEYLCIDDCWMAPQRDSEGRLQADPQRFPHGIRQLANYVHSKGLKLGIYADVGNKTCAGFPGSFGYYDIDAQTFADWGVDLLKFDGCYCDSLENLADGYKHMSLALNRTGRSIVYSCEWPLYMWPFQKPNYTEIRQYCNHWRNFADIDDSWKSIKSILDWTSFNQERIVDVAGPGGWNDPDMLVIGNFGLSWNQQVTQMALWAIMAAPLFMSNDLRHISPQAKALLQDKDVIAINQDPLGKQGYQLRQGDNFEVWERPLSGLAWAVAMINRQEIGGPRSYTIAVASLGKGVACNPACFITQLLPVKRKLGFYEWTSRLRSHINPTGTVLLQLENTMQMSLKDLL", "values": [
      {"measurement": "onset of heat-insensitivity", "setting": "Fabry-Rag mice", "value": "not"},
      {"measurement": "urine GL-3 levels", "setting": "Fabry-Rag mice", "value": "does not"},
      {"measurement": "blood GL-3 levels", "setting": "Fabry-Rag mice; from 3 months of age", "value": "reduces"}
    ]}
  ]
}
